The labels stand for the following.
B1: Hairpin Ribozyme (parent)
chain: GUCCUCUUUCACGUGCGCGUGAAAGAGAGAAGUGAACCAGAGAAACACACGUUGUGGUAUAUUACCUGGUA

Results on 137 variants are retold here after the RNAGym collection of RNA variant scans (doi:10.7554/elife.80360).

The series covers variants of B1. In words: self-cleavage, relative activity (ratio to wild type); higher = more cleavage; co-transcriptional.
As to C65A G68C, the self-cleavage amounted to 0.224.

As to C65A G68U, the self-cleavage is 0.292.

Regarding A59G C66G, the self-cleavage was 0.228.

Take U63A C66U: the self-cleavage was 0.258.

Take U58G U70G: the self-cleavage amounted to 0.575.

Turning to U60A U67A, the self-cleavage stood at 0.198.

Take A64U A71C: the self-cleavage was 0.494.

Consider A61U G69A, for which the self-cleavage stood at 0.145.

A61U G69U: the self-cleavage was found to be 0.152.

In the case of A61U G69C, the self-cleavage is 0.283.

For A61U U63C, the self-cleavage came out at 0.0398.

For the variant A61U U63G, the self-cleavage stood at 0.187.

On to A61U G68U, for which the self-cleavage turned out to be 0.153.

For C66G U67A, the self-cleavage is 0.17.

A61C G68C: the self-cleavage came to 0.153.

On to U60C A64G, for which the self-cleavage worked out at 0.614.

Turning to U62A A64C, the self-cleavage came to 0.164.

Consider U62A U67C, for which the self-cleavage came out at 0.134.

U62A U67A: the self-cleavage is 0.134.

On to A59G U67A, for which the self-cleavage is 0.311.

Take A59G U67G: the self-cleavage was determined as 0.153.

A59U U60G: the self-cleavage is 0.172.

Consider A59U U60C, for which the self-cleavage worked out at 0.257.

For the variant G68C U70A, the self-cleavage was 0.143.

In the case of U60G C65A, the self-cleavage turned out to be 0.453.

U60G C65G: the self-cleavage was 0.442.

Turning to A59C U67C, the self-cleavage worked out at 0.123.

With A59C U67A, the self-cleavage is 0.241.

As to U58G U62G, the self-cleavage stood at 0.304.

In the case of A61G C65U, the self-cleavage was determined as 0.192.

In the case of A61G G69U, the self-cleavage was determined as 0.128.

As for A61G G69C, the self-cleavage came out at 0.156.

Regarding A59C U63G, the self-cleavage is 0.164.

For the variant A59C U63C, the self-cleavage came out at 0.199.

For U60G U67C, the self-cleavage was found to be 0.121.

Take U62C G69U: the self-cleavage was determined as 0.169.

On to C65A, for which the self-cleavage worked out at 0.989.

Take C65U: the self-cleavage was 0.323.

For C65G, the self-cleavage is 0.273.

In the case of A59G U70A, the self-cleavage was found to be 0.163.

As to A59C G69U, the self-cleavage came out at 0.131.

Regarding A59C G69A, the self-cleavage is 0.19.

U58G G68C: the self-cleavage was 0.178.

For U58G G68A, the self-cleavage came to 0.208.

U63A U70G: the self-cleavage was 0.151.

Regarding C65A G69C, the self-cleavage is 0.224.

Consider C65A G69U, for which the self-cleavage worked out at 0.235.

On to U63G G68U, for which the self-cleavage came to 0.225.

With U63G G68A, the self-cleavage is 0.281.

As to C66U U67G, the self-cleavage was 0.0789.

Take U67C G68A: the self-cleavage came to 0.231.

Take U67C G68U: the self-cleavage came out at 0.208.

With U60C C66G, the self-cleavage was 0.0763.

Take U60G A64U: the self-cleavage was found to be 0.202.

On to A61G U70A, for which the self-cleavage amounted to 0.154.

For U63A A64C, the self-cleavage was determined as 0.0838.

For the variant C65U C66G, the self-cleavage was 0.248.

On to A61C U63C, for which the self-cleavage is 0.284.

For A61C U63G, the self-cleavage stood at 0.12.

For the variant G69U A71G, the self-cleavage was 0.438.

On to G69U A71U, for which the self-cleavage is 0.362.

G69U A71C: the self-cleavage amounted to 1.38.

With U60C U67A, the self-cleavage came to 0.324.

As for U62G G68A, the self-cleavage came out at 0.263.

A59G U62G: the self-cleavage came to 0.167.

For G69A A71G, the self-cleavage worked out at 0.358.

Consider G68U U70G, for which the self-cleavage is 0.252.

C65G C66A: the self-cleavage is 0.142.

In the case of A61C A64U, the self-cleavage worked out at 0.179.

A61C A64G: the self-cleavage was 0.185.

Take U63G G69A: the self-cleavage was found to be 0.102.

Take U63G G69U: the self-cleavage is 0.169.

With G69C U70C, the self-cleavage is 0.685.

For G69C U70A, the self-cleavage turned out to be 0.437.

With A59C A64U, the self-cleavage was 0.0804.

With C65A U70C, the self-cleavage was 0.692.

In the case of C65A U70G, the self-cleavage worked out at 0.562.

For A61C U67G, the self-cleavage was determined as 0.24.

As to U63G C65G, the self-cleavage stood at 0.243.

In the case of U63G C65A, the self-cleavage came to 0.0995.

In the case of U60G A61G, the self-cleavage was 0.205.

On to A59C A71U, for which the self-cleavage was 0.156.

On to A59U U70A, for which the self-cleavage was 0.177.

In the case of U63G U67G, the self-cleavage is 0.134.

Turning to U63C A71C, the self-cleavage was 0.578.

Take C66A A71G: the self-cleavage was found to be 0.196.

In the case of U63C A64G, the self-cleavage stood at 0.0805.

As to A64G U70C, the self-cleavage came out at 0.61.

Consider U63A C65U, for which the self-cleavage worked out at 0.0803.

Turning to C65A A71U, the self-cleavage amounted to 0.7.

Take C65A A71G: the self-cleavage is 0.93.

On to C66U G68C, for which the self-cleavage amounted to 0.202.

As to U63C C66U, the self-cleavage turned out to be 0.165.

Regarding U63C C66G, the self-cleavage stood at 0.244.

Regarding C65G G68A, the self-cleavage came to 0.254.

Consider C65G G68U, for which the self-cleavage was determined as 0.102.

In the case of C65U U70A, the self-cleavage turned out to be 0.379.

As to U62C U67G, the self-cleavage was found to be 0.265.

For the variant U62C U67C, the self-cleavage is 0.121.

As for U62C G68U, the self-cleavage was determined as 0.178.

Turning to U58G C66G, the self-cleavage was determined as 0.379.

Take U60C G69A: the self-cleavage was 0.51.

As to U62A U70C, the self-cleavage is 0.219.

For U62A A71G, the self-cleavage came out at 0.211.

In the case of C66A, the self-cleavage was 0.218.

Consider C66U, for which the self-cleavage is 0.527.

On to C66G, for which the self-cleavage came out at 0.181.

As for U62G, the self-cleavage came to 0.179.

As for U62C, the self-cleavage was found to be 0.268.

With U62A, the self-cleavage stood at 0.185.

Regarding U63C U70C, the self-cleavage turned out to be 0.19.

As to U67G A71U, the self-cleavage worked out at 0.918.

For U62A C66G, the self-cleavage amounted to 0.188.

As to U62C C65G, the self-cleavage stood at 0.132.

Regarding U67A G69C, the self-cleavage is 0.258.

U70C A71G: the self-cleavage turned out to be 1.85.

Regarding U63A G69U, the self-cleavage amounted to 0.17.

With C66G A71G, the self-cleavage turned out to be 0.16.

C66G A71U: the self-cleavage was 0.168.

C66G A71C: the self-cleavage came out at 0.35.

Take U60C G68C: the self-cleavage is 0.25.

As to A59U A61U, the self-cleavage was 0.168.

A59U A61C: the self-cleavage amounted to 0.0374.

As for A61G U62A, the self-cleavage amounted to 0.198.

Consider C65A C66U, for which the self-cleavage was found to be 0.508.

As to A61C U62A, the self-cleavage was 0.143.

A61C U62G: the self-cleavage is 0.102.

On to A59C U62C, for which the self-cleavage came out at 0.0999.

Turning to A59C U62G, the self-cleavage is 0.123.

Consider U63C U67A, for which the self-cleavage is 0.21.

Regarding U63C U67C, the self-cleavage is 0.148.

With U63C U67G, the self-cleavage is 0.111.

As to A61C U70G, the self-cleavage stood at 0.146.

In the case of A61C U70A, the self-cleavage amounted to 0.204.

Turning to A64C U67A, the self-cleavage is 0.0615.

As to C65U G69A, the self-cleavage was 0.193.

Take C65U G69C: the self-cleavage stood at 0.0941.
